Reference: patent US20150133630A1 (UNIVERSITY OF TOKYO, published 2015)
Bridge positions count the residues as written; N and C are the ends. Square brackets hold non-standard residues; d marks the D form. Tyr(3-NO2) = N[C@@H](Cc1ccc(O)c([N+](=O)[O-])c1)C(=O)O; Arg(NO2) = N=C(NCCC[C@H](N)C(=O)O)N[N+](=O)[O-]

Assays:
human soluble FcRn [1] = target: T1, human soluble FcRn (human, UniProt P55899 24-297; P61769 21-119, limits assumed, chemically biotinated with NHS-biotin in the mRNA display assays; amine-coupled to the sensor chip in the Biacore assay); assay: SPR, Biacore T100, KD at pH 7.4 against KD at pH 6.0
T1 construct: also called neonatal Fc receptor
Experimental: (§1) In order to find whether a peptide alone interacts with FcRn in a pH dependent manner, the peptide 2G01D not having SGSGS on the C-terminal side of 8D-01 and amidated at the C-terminal was synthesized on a solid phase and a dissociation constant Kd binding constant was measured using Biacore T100 (GE Healthcare). FcRn was immobilized onto a sensor chip by an amine coupling method. The following is the peptide 2G01D:
(§2) On the other hand, a solid-phase synthesized peptide 2G01D was added as an analyte to a phosphate buffer having a pH 6.0 or 7.4 and a dissociation constant was measured.

human soluble FcRn [2] = target: T1, human soluble FcRn; assay: SPR, Biacore T100, FcRn amine-coupled to chip, peptide as analyte, phosphate buffer pH 6.0
Experimental: as §1, §2

human soluble FcRn [3] = target: T1, human soluble FcRn; assay: SPR, Biacore T100, FcRn amine-coupled to chip, peptide as analyte, phosphate buffer pH 7.4
Experimental: as §1, §2

fold change in dissociation constant between pH 7.4 and pH 6.0 (human soluble FcRn [1]): ~70 times
Kd (human soluble FcRn [2]): 4.26 nM
koff (human soluble FcRn [2]): 0.00394 s⁻¹
kon (human soluble FcRn [2]): 925000 M⁻¹ s⁻¹
Kd (human soluble FcRn [3]): 293 nM
koff (human soluble FcRn [3]): 0.00955 s⁻¹
kon (human soluble FcRn [3]): 32600 M⁻¹ s⁻¹
B1: peptide 2G01D (peptide)
peptide: {CH2CO}-[dNty]F[Tyr(3-NO2)]LYN[Arg(NO2)]GDPL[Tyr(3-NO2)]LCG-NH2
modifications: thioether N-14; not fully specified
notes: also called solid-phase synthesized peptide 2G01D
